Data taken from paper PMC3229572.
Values joined by “and” are separate entries in the source; they are usually repeats but may differ in a detail not shown here. Equal entries are not always repeated.

Biological target: recombinant full length M2 protein of influenza virus A/Hong Kong/8/68 (H3N2) (influenza A virus A/Hong Kong/8/68 (H3N2))

For “recombinant full length M2 protein of influenza virus A/Hong Kong/8/68 (H3N2) (natural protein)”, which stoichiometry N is on record?
Its stoichiometry N is 4 and 8.
